In PMC3689434 (Biochemistry, 2013):
Read-outs that look alike come from different tables or passages of the source.

What was measured:
[1] = molecular target: the molecule itself; assay: zonal velocity sedimentation in a glycerol gradient
[2] = molecular target: the molecule itself; assay: as above; remark: listed apart in the source

B1: M. smegmatis PNPase-(1-591) lacking the KH and S1 domains (domain or fragment, Mycobacterium smegmatis, UniProt A0QVQ5 1-591, looked up)
chain: MSVVELEDGVYESTAVIDNGSFGTRTIRFETGRLAQQAAGSAVAYLDDETMLLSATTASKNPKDHFDFFPLTVDVEERMYAAGRIPGSFFRREGRPSTDAILTCRLIDRPLRPSFVDGLRNEIQVVVTVMSLDPKDLYDVLAINAASMSTQLAGLPFSGPVGGARIALIDGTWVAFPTVEQLERAVFDMVVAGRIVGDGDSADVAIMMVEAEATENVVELVAGGAQAPTEAVVAEGLEAAKPFIKALCAAQQELADRAAKPAGEYPVFPDYEADVYDAVASVATEALAEALTIAGKTERNDRTDEIKVEVLERLAEPYAGREKEIGAAFRSLTKKLVRQRILTDHFRIDGRGITDIRALSAEVAVIPRAHGSALFERGETQILGVTTLDMIKMAQQIDSLGPENTKRYMHHYNFPPYSTGETGRVGSPKRREIGHGALAERALVPVLPSIEEFPYAIRQVSEALGSNGSTSMGSVCASTLALLNAGVPLKAPVAGIAMGLVSDDVDVDGKVEKRYVALTDILGAEDAFGDMDFKVAGTKDFVTALQLDTKLDGIPSQVLAGALSQAKDARLTILDVMAEAIDRPDEMSPYA
B1: binds [1].

B2: full-length Mycobacterium smegmatis polynucleotide phosphorylase (PNPase) (enzyme, UniProt A0QVQ5 1-763, looked up)
chain: MSVVELEDGVYESTAVIDNGSFGTRTIRFETGRLAQQAAGSAVAYLDDETMLLSATTASKNPKDHFDFFPLTVDVEERMYAAGRIPGSFFRREGRPSTDAILTCRLIDRPLRPSFVDGLRNEIQVVVTVMSLDPKDLYDVLAINAASMSTQLAGLPFSGPVGGARIALIDGTWVAFPTVEQLERAVFDMVVAGRIVGDGDSADVAIMMVEAEATENVVELVAGGAQAPTEAVVAEGLEAAKPFIKALCAAQQELADRAAKPAGEYPVFPDYEADVYDAVASVATEALAEALTIAGKTERNDRTDEIKVEVLERLAEPYAGREKEIGAAFRSLTKKLVRQRILTDHFRIDGRGITDIRALSAEVAVIPRAHGSALFERGETQILGVTTLDMIKMAQQIDSLGPENTKRYMHHYNFPPYSTGETGRVGSPKRREIGHGALAERALVPVLPSIEEFPYAIRQVSEALGSNGSTSMGSVCASTLALLNAGVPLKAPVAGIAMGLVSDDVDVDGKVEKRYVALTDILGAEDAFGDMDFKVAGTKDFVTALQLDTKLDGIPSQVLAGALSQAKDARLTILDVMAEAIDRPDEMSPYAPRITTIKVPVDKIGEVIGPKGKMINSITEETGAQISIEDDGTVFVGAADGLSAQAAIDKINAIANPQLPKVGERFLGTVVKTTDFGAFVSLLPGRDGLVHISKLGKGKRIAKVEDVVKVGDKLRVEIADIDNRGKISLVLVAEESAESAESAGDKGAEKAEGAAADVTPAEA
For B2, the “stoichiometry N” value [2] was 3.

B3: M. smegmatis PNPase-(1-656) lacking the S1 domain (domain or fragment, Mycobacterium smegmatis, UniProt A0QVQ5 1-656, looked up)
chain: MSVVELEDGVYESTAVIDNGSFGTRTIRFETGRLAQQAAGSAVAYLDDETMLLSATTASKNPKDHFDFFPLTVDVEERMYAAGRIPGSFFRREGRPSTDAILTCRLIDRPLRPSFVDGLRNEIQVVVTVMSLDPKDLYDVLAINAASMSTQLAGLPFSGPVGGARIALIDGTWVAFPTVEQLERAVFDMVVAGRIVGDGDSADVAIMMVEAEATENVVELVAGGAQAPTEAVVAEGLEAAKPFIKALCAAQQELADRAAKPAGEYPVFPDYEADVYDAVASVATEALAEALTIAGKTERNDRTDEIKVEVLERLAEPYAGREKEIGAAFRSLTKKLVRQRILTDHFRIDGRGITDIRALSAEVAVIPRAHGSALFERGETQILGVTTLDMIKMAQQIDSLGPENTKRYMHHYNFPPYSTGETGRVGSPKRREIGHGALAERALVPVLPSIEEFPYAIRQVSEALGSNGSTSMGSVCASTLALLNAGVPLKAPVAGIAMGLVSDDVDVDGKVEKRYVALTDILGAEDAFGDMDFKVAGTKDFVTALQLDTKLDGIPSQVLAGALSQAKDARLTILDVMAEAIDRPDEMSPYAPRITTIKVPVDKIGEVIGPKGKMINSITEETGAQISIEDDGTVFVGAADGLSAQAAIDKINAIAN
For B3, the “stoichiometry N” value [1] was 1 to 3.
